The text below walks through data of US20240132615A1 (ICHNOS SCIENCES, published 2024).

The target in this experiment is T1, human CD3 on cells (HPB-ALL cells, primary human T cells) (human, UniProt P07766 23-207).
T1 construct: whole, on cells; only the epsilon chain is written
Briefly: flow cytometry, HPB-ALL WT.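 Also: binding read by flow cytometry as PE geometric mean fluorescence intensity on live single cells, dead cells excluded with SYTOX Green, only samples with at least 200 gated cells.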 On the technique in general: Flow cytometry measures light scatter and fluorescence of single cells or particles in a stream.

T1 sequence (P07766 23-207): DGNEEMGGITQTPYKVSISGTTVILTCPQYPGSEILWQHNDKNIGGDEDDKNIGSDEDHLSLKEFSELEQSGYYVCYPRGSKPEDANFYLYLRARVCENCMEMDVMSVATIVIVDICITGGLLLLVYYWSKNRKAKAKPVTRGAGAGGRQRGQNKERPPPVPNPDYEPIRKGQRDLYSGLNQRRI
Procedure: Cells were then washed twice and resuspended in 100 μl of FACS buffer containing SYTOX Green dead cell stain (ThermoFisher Scientific, catalog NO: S34860) diluted 1/2000. Samples were acquired on a CytoFlex instruments (Beckman Coulter). Cells were gated based on size on FSC vs SSC and debris, doublets and dead cells were excluded. Cells were analyzed for PE-geometric mean (geomean) fluorescence intensity using FlowJo software. Only samples showing at least 200 cells in final gate were considered in the further steps of the analysis.

B1: Anti-CD3-UCP03-B1 IgG1LALA (antibody, V domains shown)
VH: EVQLLESGGGLVQPGGSLRLSCAASGFTFSRYAMTWVRQAPGKGLEWVSGISKYGGATAYADSVKGRFTISRDNSKNTLYLQMNSLRAEDTAVYYCARGGTRFDIWGQGTLVTVSS
VL: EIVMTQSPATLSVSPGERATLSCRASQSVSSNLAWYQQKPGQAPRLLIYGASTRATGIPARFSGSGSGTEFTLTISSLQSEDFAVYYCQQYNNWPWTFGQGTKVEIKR
notes: IgG1 LALA
In the case of B1, the binding result is listed as “no binding (tested: 800 nM)”.

B2: Anti-CD3-UCP07-C3 IgG1LALA (antibody, V domains shown)
VH: QVQLVQSGAEVKKPGSSVKVSCKASGGSFSRYAIGWVRQAPGQGLEWMGGIIPDVGIAFYAQKFQGRVTITADESTSTAYMELSSLRSEDTAVYYCAREYHYVGAFDIWGQGTLVTVSS
VL: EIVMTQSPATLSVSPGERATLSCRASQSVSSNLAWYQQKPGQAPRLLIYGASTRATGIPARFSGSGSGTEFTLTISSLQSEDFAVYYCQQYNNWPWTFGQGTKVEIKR
notes: IgG1 LALA
As to B2, the binding result is given as “no binding (tested: 800 nM)”.

B3: Anti-CD3-UCP03-A3 IgG1LALA (antibody, V domains shown)
VH: EVQLLESGGGLVQPGGSLRLSCAASGFTFSSNAMSWVRQAPGKGLEWVSAVGKYGGATSYADSVKGRFTISRDNSKNTLYLQMNSLRAEDTAVYYCARGGPGYSTFYEFDNWGQGTLVTVSS
VL: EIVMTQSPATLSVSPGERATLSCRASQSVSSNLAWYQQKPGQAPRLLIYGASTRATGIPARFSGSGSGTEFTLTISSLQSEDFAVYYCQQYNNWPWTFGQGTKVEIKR
notes: IgG1 LALA
With B3, the binding result is reported as “no binding (tested: 800 nM)”.

B4: Anti-CD3-UCP03-E2 IgG1LALA (antibody, V domains shown)
VH: EVQLVESGGGLIQPGGSLRLSCAASGISVGNNYMSWVRQAPGKGLEWVSVIYPNGRIKYADSVKGRFTISRDNSKNTLYLQMNSLRAEDTAVYYCARGVIDGSYLDFAYWGQGTLVTVSS
VL: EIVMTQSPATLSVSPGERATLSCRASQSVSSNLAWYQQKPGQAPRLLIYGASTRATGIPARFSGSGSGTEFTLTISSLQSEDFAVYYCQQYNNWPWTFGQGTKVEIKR
notes: IgG1 LALA
B4: the binding result was “no binding (tested: 800 nM)”.

B5: Anti-CD3-UCP07-F2 IgG1LALA (antibody, V domains shown)
VH: QVQLVQSGAEVKKPGSSVKVSCKASGGKFNKYVIGWVRQAPGQGLEWMGGVIPLKGQSKYAQKFQGRVTITADESTSTAYMELSSLRSEDTAVYYCARGRYYGDYSWKFDYWGQGTLVTVSS
VL: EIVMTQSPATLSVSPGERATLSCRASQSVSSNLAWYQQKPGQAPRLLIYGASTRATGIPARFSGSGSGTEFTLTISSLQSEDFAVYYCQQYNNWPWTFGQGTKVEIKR
notes: IgG1 LALA
As for B5, the binding result was “no binding (tested: 800 nM)”.

B6: Anti-CD3-UCP07-A1 IgG1LALA (antibody, V domains shown)
VH: EVQLVESGGGLVKPGGSLRLSCAASGFTFSDYAVNWVRQAPGKGLEWVGRIKSKNEGGTGYAAPVKGRFTISRDDSKNTLYLQMNSLKTEDTAVYYCAREPSYYRDGAADYWGQGTLVTVSS
VL: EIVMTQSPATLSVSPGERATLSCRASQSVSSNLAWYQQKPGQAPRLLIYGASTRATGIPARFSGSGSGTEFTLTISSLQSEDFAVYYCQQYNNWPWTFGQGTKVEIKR
notes: IgG1 LALA
On to B6, for which the binding result was “no binding (tested: 800 nM)”.

B7: Anti-CD3-UCP03-F2 IgG1LALA (antibody, V domains shown)
VH: EVQLLESGGGLVQPGGSLRLSCAASGFAFSHYAMTWVRQAPGKGLELVSAISQHGGYTAYADSVKGRFTISRDNSKNTLYLQMNSLRAEDTAVYYCARGHPVHAFDFWGQGTLVTVSS
VL: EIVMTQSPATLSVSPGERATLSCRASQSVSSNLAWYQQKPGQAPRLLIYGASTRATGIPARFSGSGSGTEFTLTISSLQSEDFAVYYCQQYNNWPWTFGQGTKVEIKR
notes: IgG1 LALA
For the molecule B7, the binding result is reported as “no binding (tested: 800 nM)”.

B8: Anti-CD3-UCP05-D2 IgG1LALA (antibody, V domains shown)
VH: EVQLLESGGGLVQPGGSLRLSCAASGFTFNIYALGWVRQAPGKGLEWVSAISQNGGYTLYADSVKGRFTISRDNSKNTLYLQMNSLRAEDTAVYYCARLRGGSGMDVWGQGTLVTVSS
VL: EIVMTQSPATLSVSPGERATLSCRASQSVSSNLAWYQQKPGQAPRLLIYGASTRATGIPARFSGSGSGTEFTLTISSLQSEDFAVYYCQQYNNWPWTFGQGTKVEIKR
notes: IgG1 LALA
Regarding B8, the binding result is given as “no binding (tested: 800 nM)”.

B9: Anti-CD3-UCP05-C1 IgG1LALA (antibody, V domains shown)
VH: QVQLVQSGAEVKKPGSSVKVSCKASGGRFSRQALTWVRQAPGQGLEWMGGIIPDHGRPIYAQKFQGRVTITADESTSTAYMELSSLRSEDTAVYYCARGKGGSVAGWKFDVWGQGTLVTVSS
VL: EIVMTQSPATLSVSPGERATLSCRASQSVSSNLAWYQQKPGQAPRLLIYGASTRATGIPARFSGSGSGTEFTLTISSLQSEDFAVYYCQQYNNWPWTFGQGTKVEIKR
notes: IgG1 LALA
In the case of B9, the binding result was “no binding (tested: 800 nM)”.

B10: Anti-CD3-UCP07-E1 IgG1LALA (antibody, V domains shown)
VH: EVQLLESGGGLVQPGGSLRLSCAASGFTFSRNAMNWVRQAPGKGLEWVSSISRIGGFTIYADSVKGRFTISRDNSKNTLYLQMNSLRAEDTAVYYCARVGSGGKAFDVWGQGTLVTVSS
VL: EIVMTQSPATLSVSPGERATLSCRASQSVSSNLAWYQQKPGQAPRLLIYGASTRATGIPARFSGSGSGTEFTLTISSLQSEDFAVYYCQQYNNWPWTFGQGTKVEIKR
notes: IgG1 LALA
Regarding B10, the binding result was “no binding (tested: 800 nM)”.

B11: Anti-CD3-UCP05-H2 IgG1LALA (antibody, V domains shown)
VH: QVQLVQSGAEVKKPGSSVKVSCKASGGGFSHYALNWVRQAPGQGLEWMGGIIPLTGKTAYAQKFQGRVTITADESTSTAYMELSSLRSEDTAVYYCARKISSARDYWGQGTLVTVSS
VL: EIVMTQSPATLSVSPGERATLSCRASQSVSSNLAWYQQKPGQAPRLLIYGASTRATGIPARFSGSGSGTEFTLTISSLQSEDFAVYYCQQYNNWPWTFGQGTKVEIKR
notes: IgG1 LALA
As for B11, the binding result was “no binding (tested: 800 nM)”.

B12: Anti-CD3-UCP05-F1 IgG1LALA (antibody, V domains shown)
VH: EVQLLESGGGLVQPGGSLRLSCAASGFTFRHYAMTWVRQAPGKGLEWVSAITQRGGYTYYADSVKGRFTISRDNSKNTLYLQMNSLRAEDTAVYYCARAGPSGGGFDYWGQGTLVTVSS
VL: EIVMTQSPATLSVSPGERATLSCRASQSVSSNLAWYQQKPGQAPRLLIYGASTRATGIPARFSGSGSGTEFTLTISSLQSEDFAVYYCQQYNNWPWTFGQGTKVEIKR
notes: IgG1 LALA
Take B12: the binding result is reported as “no binding (tested: 800 nM)”.

B13: Anti-CD3-UCP05-A2 IgG1LALA (antibody, V domains shown)
VH: EVQLLESGGGLVQPGGSLRLSCAASGFSFKIYAMGWVRQAPGKGLEWVSAITQQGGATVYADSVKGRFTISRDNSKNTLYLQMNSLRAEDTAVYYCARPGDLGGGFDIWGQGTLVTVSS
VL: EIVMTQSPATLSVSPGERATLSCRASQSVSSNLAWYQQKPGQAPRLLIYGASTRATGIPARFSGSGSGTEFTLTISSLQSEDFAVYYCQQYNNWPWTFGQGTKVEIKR
notes: IgG1 LALA
As to B13, the binding result is reported as “no binding (tested: 800 nM)”.

B14: Anti-CD3-UCP07-D1 IgG1LALA (antibody, V domains shown)
VH: EVQLLESGGGLVQPGGSLRLSCAASGFNFNINVMSWVRQAPGKGLEWVSAISQSGGYTLYADSVKGRFTISRDNSKNTLYLQMNSLRAEDTAVYYCARASPYGGGFDYWGQGTLVTVSS
VL: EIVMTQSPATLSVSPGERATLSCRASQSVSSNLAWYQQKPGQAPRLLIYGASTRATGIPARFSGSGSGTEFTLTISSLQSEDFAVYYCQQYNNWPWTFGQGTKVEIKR
notes: IgG1 LALA
Take B14: the binding result is on record as “no binding (tested: 800 nM)”.

B15: Anti-CD3-UCP02-D2 IgG1LALA (antibody, V domains shown)
VH: EVQLVESGGGLVKPGGSLRLSCAASGFTFNKAWMGWVRQAPGKGLEWVGRIKSVTDGGITVYAAPVKGRFTISRDDSKNTLYLQMNSLKTEDTAVYYCARVTARYYYFDNWGQGTLVTVSS
VL: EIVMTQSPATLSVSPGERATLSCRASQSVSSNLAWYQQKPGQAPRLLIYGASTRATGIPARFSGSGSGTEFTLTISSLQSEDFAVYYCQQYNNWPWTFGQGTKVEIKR
notes: IgG1 LALA
Consider B15, for which the binding result was “no binding (tested: 800 nM)”.

B16: Anti-CD3-UCP07-A3 IgG1LALA (antibody, V domains shown)
VH: EVQLLESGGGLVQPGGSLRLSCAASGVSFREYVMAWVRQAPGKGLEWVSVISQYGGNTYYADSVKGRFTISRDNSKNTLYLQMNSLRAEDTAVYYCARSGGSVPFDYWGQGTLVTVSS
VL: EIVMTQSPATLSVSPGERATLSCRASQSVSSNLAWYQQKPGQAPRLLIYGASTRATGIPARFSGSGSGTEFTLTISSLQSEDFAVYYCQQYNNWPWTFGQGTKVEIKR
notes: IgG1 LALA
As for B16, the binding result is reported as “no binding (tested: 800 nM)”.

B17: Anti-CD3-UCP03-C5 IgG1LALA (antibody, V domains shown)
VH: EVQLVESGGGLIQPGGSLRLSCAASGFTVSDNDMSWVRQAPGKGLEWVSLIYSNGGTHYADSVKGRFTISRDNSKNTLYLQMNSLRAEDTAVYYCARWGISLGEPYFDYWGQGTLVTVSS
VL: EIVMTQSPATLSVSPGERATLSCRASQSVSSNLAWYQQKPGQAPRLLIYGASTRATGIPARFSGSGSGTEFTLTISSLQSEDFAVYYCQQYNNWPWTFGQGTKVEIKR
notes: IgG1 LALA
In the case of B17, the binding result was “no binding (tested: 800 nM)”.

B18: Anti-CD3-UCP03-F1 IgG1LALA (antibody, V domains shown)
VH: EVQLLESGGGLVQPGGSLRLSCAASGFPFSHHVMTWVRQAPGKGLEWVSAITQRGEYTLYADSVKGRFTISRDNSKNTLYLQMNSLRAEDTAVYYCARGPVPGGDHAFDYWGQGTLVTVSS
VL: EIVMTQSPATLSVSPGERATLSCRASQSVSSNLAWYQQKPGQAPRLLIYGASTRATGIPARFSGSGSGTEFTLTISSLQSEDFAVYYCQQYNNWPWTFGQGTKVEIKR
notes: IgG1 LALA
Consider B18, for which the binding result was “no binding (tested: 800 nM)”.

B19: Anti-CD3-UCP03-G2 IgG1LALA (antibody, V domains shown)
VH: QVQLVQSGAEVKKPGSSVKVSCKASGYGFNLYAINWVRQAPGQGLEWMGRIIPEYGHTRYAQKFQGRVTITADESTSTAYMELSSLRSEDTAVYYCARDRYSTYSGGMDYWGQGTLVTVSS
VL: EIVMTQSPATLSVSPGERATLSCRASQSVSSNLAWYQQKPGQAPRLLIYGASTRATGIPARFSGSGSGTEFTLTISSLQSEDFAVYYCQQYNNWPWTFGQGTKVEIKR
notes: IgG1 LALA
B19: the binding result is listed as “no binding (tested: 800 nM)”.

B20: Anti-CD3-UCP03-C1 IgG1LALA (antibody, V domains shown)
VH: EVQLLESGGGLVQPGGSLRLSCAASGFTFSQYAMSWVRQAPGKGLEWVSVISPSGATAVYADSVKGRFTISRDNSKNTLYLQMNSLRAEDTAVYYCARGQYDDLDKSGYEFDHWGQGTLVTVSS
VL: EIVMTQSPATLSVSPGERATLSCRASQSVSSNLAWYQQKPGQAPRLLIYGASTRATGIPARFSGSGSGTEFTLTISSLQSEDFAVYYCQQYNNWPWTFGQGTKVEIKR
notes: IgG1 LALA
Regarding B20, the binding result is “no binding (tested: 800 nM)”.

B21: Anti-CD3-UCP05-G2 IgG1LALA (antibody, V domains shown)
VH: QVQLVQSGAEVKKPGSSVKVSCKASGGVFNFYAISWVRQAPGQGLEWMGGITPDGGFVKYAQKFQGRVTITADESTSTAYMELSSLRSEDTAVYYCARSPVSLYYGKYYVYYGAFDVWGQGTLVTVSS
VL: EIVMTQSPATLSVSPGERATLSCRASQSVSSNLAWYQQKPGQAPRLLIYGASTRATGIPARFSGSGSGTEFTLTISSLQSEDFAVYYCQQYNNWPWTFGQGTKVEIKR
notes: IgG1 LALA
As for B21, the binding result is “no binding (tested: 800 nM)”.

B22: Anti-CD3-UCP03-H2 IgG1LALA (antibody, V domains shown)
VH: EVQLVESGGGLIQPGGSLRLSCAASGFTVRDSYMHWVRQAPGKGLEWVSIIYYTGKTHYADSVKGRFTISRDNSKNTLYLQMNSLRAEDTAVYYCARSQYGYFDYWGQGTLVTVSS
VL: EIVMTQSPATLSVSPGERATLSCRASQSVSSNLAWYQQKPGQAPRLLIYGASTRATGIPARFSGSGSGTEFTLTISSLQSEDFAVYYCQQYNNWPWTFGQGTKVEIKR
notes: IgG1 LALA
With B22, the binding result is recorded as “no binding (tested: 800 nM)”.

B23: Anti-CD3-UCP07-E2 IgG1LALA (antibody, V domains shown)
VH: EVQLLESGGGLVQPGGSLRLSCAASGFPFSNYAMSWVRQAPGKGLEWVSAISRKGGFTEYADSVKGRFTISRDNSKNTLYLQMNSLRAEDTAVYYCARASYLGGFAYWGQGTLVTVSS
VL: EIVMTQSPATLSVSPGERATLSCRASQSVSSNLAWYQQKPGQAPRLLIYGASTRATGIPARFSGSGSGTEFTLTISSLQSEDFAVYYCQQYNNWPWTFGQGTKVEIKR
notes: IgG1 LALA
Consider B23, for which the binding result was “no binding (tested: 800 nM)”.

B24: Anti-CD3-UCP07-B3 IgG1LALA (antibody, V domains shown)
VH: EVQLVESGGGLVKPGGSLRLSCAASGFDFNAAWMTWVRQAPGKGLEWVGRIKSEKNGGKSVYAAPVKGRFTISRDDSKNTLYLQMNSLKTEDTAVYYCARGGRLSSYFDPWGQGTLVTVSS
VL: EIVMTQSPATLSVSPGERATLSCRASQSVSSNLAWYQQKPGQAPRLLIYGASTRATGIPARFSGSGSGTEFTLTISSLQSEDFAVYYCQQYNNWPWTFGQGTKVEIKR
notes: IgG1 LALA
Turning to B24, the binding result is given as “no binding (tested: 800 nM)”.

B25: Anti-CD3-UCP06-A1 IgG1LALA (antibody, V domains shown)
VH: QVQLVQSGAEVKKPGSSVKVSCKASGGHFRGYGISWVRQAPGQGLEWMGEIIPLRGFTIYAQKFQGRVTITADESTSTAYMELSSLRSEDTAVYYCARGSYVDSSYYYYDGFDVWGQGTLVTVSS
VL: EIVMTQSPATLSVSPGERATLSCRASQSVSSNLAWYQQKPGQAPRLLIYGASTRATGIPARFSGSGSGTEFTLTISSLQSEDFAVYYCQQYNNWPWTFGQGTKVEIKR
notes: IgG1 LALA
Regarding B25, the binding result was “no binding (tested: 800 nM)”.

B26: Anti-CD3-UCP02-A3 IgG1LALA (antibody, V domains shown)
VH: EVQLVESGGGLIQPGGSLRLSCAASGFTFRRYYMTWVRQAPGKGLEWVSVIFPQGGTSYADSVKGRFTISRDNSKNTLYLQMNSLRAEDTAVYYCARVHDVLDDVEWFDHWGQGTLVTVSS
VL: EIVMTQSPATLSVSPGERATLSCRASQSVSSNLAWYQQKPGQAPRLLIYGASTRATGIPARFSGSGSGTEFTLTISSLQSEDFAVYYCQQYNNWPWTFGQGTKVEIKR
notes: IgG1 LALA
Consider B26, for which the binding result is on record as “no binding (tested: 800 nM)”.

B27: Anti-CD3-UCP02-B2 IgG1LALA (antibody, V domains shown)
VH: EVQLLESGGGLVQPGGSLRLSCAASGFTFSHYVLNWVRQAPGKGLEWVSGISLTGIATIYADSVKGRFTISRDNSKNTLYLQMNSLRAEDTAVYYCARGDPTSAFDVWGQGTLVTVSS
VL: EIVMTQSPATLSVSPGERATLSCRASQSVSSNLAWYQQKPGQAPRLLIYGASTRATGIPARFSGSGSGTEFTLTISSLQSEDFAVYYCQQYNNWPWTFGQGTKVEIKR
notes: IgG1 LALA
Regarding B27, the binding result is reported as “no binding (tested: 800 nM)”.

B28: Anti-CD3-UCP05-A1 IgG1LALA (antibody, V domains shown)
VH: EVQLLESGGGLVQPGGSLRLSCAASGFTFSTYAMSWVRQAPGKGLELVSAISRHGGFSRYADSVKGRFTISRDNSKNTLYLQMNSLRAEDTAVYYCARASSYGYDPWGQGTLVTVSS
VL: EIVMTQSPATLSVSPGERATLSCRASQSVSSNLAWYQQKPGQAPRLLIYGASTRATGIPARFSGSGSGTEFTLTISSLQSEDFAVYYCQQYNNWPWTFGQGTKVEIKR
notes: IgG1 LALA
For the molecule B28, the binding result was “no binding (tested: 800 nM)”.

B29: Anti-CD3-UCP05-H1 IgG1LALA (antibody, V domains shown)
VH: EVQLLESGGGLVQPGGSLRLSCAASGFAFSNSAMSWVRQAPGKGLELVSAISTKGGKTLYADSVKGRFTISRDNSKNTLYLQMNSLRAEDTAVYYCARSSPYGFDYWGQGTLVTVSS
VL: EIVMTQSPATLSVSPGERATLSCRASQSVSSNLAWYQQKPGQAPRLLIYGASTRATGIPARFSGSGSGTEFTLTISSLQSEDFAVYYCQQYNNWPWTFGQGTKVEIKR
notes: IgG1 LALA
Consider B29, for which the binding result is recorded as “no binding (tested: 800 nM)”.
